Assay [1] addresses T1, (His)6-NLRP1 (NLR family, pyrin domain-containing 1), purified recombinant full-length protein from Sf21 cells (human) (UniProt Q9C000).
T1 sequence: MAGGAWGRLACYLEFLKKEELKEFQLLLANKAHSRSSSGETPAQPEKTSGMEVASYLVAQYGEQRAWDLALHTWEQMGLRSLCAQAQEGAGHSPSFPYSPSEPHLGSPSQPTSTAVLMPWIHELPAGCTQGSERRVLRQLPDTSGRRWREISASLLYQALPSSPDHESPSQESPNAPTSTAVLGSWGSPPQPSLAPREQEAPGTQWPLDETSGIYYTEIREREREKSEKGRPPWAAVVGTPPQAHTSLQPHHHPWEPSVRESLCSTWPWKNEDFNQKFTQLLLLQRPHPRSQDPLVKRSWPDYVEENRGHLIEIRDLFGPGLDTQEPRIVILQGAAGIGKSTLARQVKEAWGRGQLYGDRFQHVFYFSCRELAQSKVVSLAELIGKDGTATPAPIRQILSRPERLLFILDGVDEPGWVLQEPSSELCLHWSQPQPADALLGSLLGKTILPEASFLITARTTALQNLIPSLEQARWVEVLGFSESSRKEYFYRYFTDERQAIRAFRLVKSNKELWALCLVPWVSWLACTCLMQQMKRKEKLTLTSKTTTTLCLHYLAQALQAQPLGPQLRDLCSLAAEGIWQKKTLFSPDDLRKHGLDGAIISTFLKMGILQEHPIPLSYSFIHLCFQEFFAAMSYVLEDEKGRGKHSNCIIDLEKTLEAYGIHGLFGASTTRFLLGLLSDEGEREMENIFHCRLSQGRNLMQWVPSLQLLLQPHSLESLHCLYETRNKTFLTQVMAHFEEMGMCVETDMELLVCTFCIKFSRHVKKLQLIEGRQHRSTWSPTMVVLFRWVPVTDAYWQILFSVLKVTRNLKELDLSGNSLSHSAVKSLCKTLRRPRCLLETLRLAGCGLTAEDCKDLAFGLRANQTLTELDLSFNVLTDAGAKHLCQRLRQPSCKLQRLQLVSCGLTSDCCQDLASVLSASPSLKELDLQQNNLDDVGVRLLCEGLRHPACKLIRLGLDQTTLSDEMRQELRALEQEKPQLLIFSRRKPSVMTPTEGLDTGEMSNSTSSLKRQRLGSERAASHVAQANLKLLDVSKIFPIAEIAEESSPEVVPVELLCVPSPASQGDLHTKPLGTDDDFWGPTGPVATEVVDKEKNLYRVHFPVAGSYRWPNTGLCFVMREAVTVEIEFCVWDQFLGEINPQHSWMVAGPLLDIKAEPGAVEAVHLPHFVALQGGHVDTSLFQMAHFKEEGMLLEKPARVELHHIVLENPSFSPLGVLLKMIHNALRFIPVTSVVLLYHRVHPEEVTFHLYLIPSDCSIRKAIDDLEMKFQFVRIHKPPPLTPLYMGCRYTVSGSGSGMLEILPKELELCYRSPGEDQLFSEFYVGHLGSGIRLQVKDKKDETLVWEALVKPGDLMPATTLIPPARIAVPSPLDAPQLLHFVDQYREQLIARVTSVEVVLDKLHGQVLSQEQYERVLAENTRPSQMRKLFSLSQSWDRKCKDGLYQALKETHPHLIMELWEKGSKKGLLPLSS
Nature of the assay: cell-based or functional assay.

The target in assay [2] is T1, (His)6-NLRP1 (NLR family, pyrin domain-containing 1), purified recombinant full-length protein from Sf21 cells (human). Nature of the assay: enzyme kinetics of the reconstituted NLRP1 inflammasome (Caspase-1 activity on Ac-WEHD-AMC); Ki from the competitive inhibition equation.

Here are results for two substances from patent publication US20100093623A1, “COMPOSITIONS AND METHODS FOR […]-LIKE RECEPTOR ACTIVITY AND USES THEREOF” (Burnham Institute for Medical Research, priority 2008, published 2010).

In the case of “GST-Bcl-2 (Bcl-2 lacking its C-terminal transmembrane domain, ~last 20 amino acids) (from UniProt P08515 1-218; P10415 1-218)”, the FITC-ATP binding to NLRP1 (FPA), reduction in assay [1] is 60%. Also, in assay [2], the Ki (usually the equilibrium dissociation constant of an inhibitor or competing ligand from its target) amounted to 8.23 nM. Turning to Bcl-2 Loop peptide 35-83 (synthetic), the IC50 (concentration to inhibit NLRP1-induced Caspase-1 activity by 50%) in assay [1] stood at 11.4 nM.
